According to article PMC9458429:

What was measured:
Assay in all cases: filter binding
[1] = tested on: 70S ribosome (Escherichia coli MRE600); conditions: Filter binding: 50 nM 32P-RNA in TAKM5 buffer (composition not given), 15 min at 37 C, nitrocellulose filtration, fluorescence titrations: pyrene, ex 341 nm …
[2] = tested on: 30S ribosomal subunit (Escherichia coli MRE600); conditions: Filter binding: 50 nM 32P-RNA in TAKM5 buffer (composition not given), 15 min at 37 C, nitrocellulose filtration, fluorescence titrations: pyrene, ex 341 nm …
[3] = tested on: 40S ribosomal subunit ((HeLa cells)); conditions: Filter binding: 50 nM 32P-RNA in TAKM5 buffer (composition not given), 15 min at 37 C, nitrocellulose filtration; fluorescence titrations: pyrene, ex 341 nm …

Sequence “AAAGCAAAAAUGUGAUCUUGCUUGUAAAUACAAUUUUGAGAGGUUAAUAAAUUACAAGUAGUGCUAUUUUUGUAUUUAGGUUAGCUAUUUAGCUUUACGUUCCAGGAUGCCUAGUGGCAGCCCCACAAUAUCCAGGAAGCCCUCUCUGCGGUUUUUCAGAUUAGGUAGUCGAAAAACCUAAGAAAUUUACCUGCUACAUUUCAAGAUAAA [CrPV IGR IRES WT]” has a Kd [1] of 69 nM, a Kd [2] of 110 nM and a Kd [3] of 14 nM.

In the case of “AAAGCAAAAAUGUGAUCUUGCUUGUAAAUACAAUUUUGAGAGGUUAAUAAAUUACAAGUAGUGCUAUUUUUGUAUUUAGGUUAGCUAUUUAGCUUUACGUUCCAGGAUGCCUAGUGGCAGCCCCACAAUAUCCAGGAAGCCCUCUCUGCGGUUUUUCAGAUUAGGUAGUCGAAAAACCUAAGAAAUUUAGGUGCUACAUUUCAAGAUAAA [CrPV IGR IRES PK1_K/O]”, the Kd [1] is reported as 92 nM, the Kd [2] is reported as 55 nM and the Kd [3] is reported as 4 nM.

Sequence “AAAGCAAAAAUGUGAUCUUGCUUGUAAAUACAAUUUUGAGAGGUUAAUAAAUUACAAGUAGUGCUAUUUUUGUAUUUAGGUUAGCUAUUUAGCUUUACGUUCCAGGAUGCCUAGUGGCAGCCCCACAAUAUCCAGGAAGCGGAGAGUGCGGUUUUUCAGAUUAGGUAGUCGAAAAACCUAAGAAAUUUACCUGCUACAUUUCAAGAUAAA [CrPV IGR IRES PK2_K/O]” has a Kd [1] of 100 nM and a Kd [2] of 74 nM.

Sequence “AAAGCAAAAAUGUGAUCUUGCUUGUAAAUACAAUUUUGAGAGGUUAAUAAAUUACAAGUAGUGCUAUUUUUGUAUUUAGGUUAGCUAUUUAGCUUUACGUUCCAGGAUGCCUAGUGGCAGCCCGUGAAUAUCCAGGAAGCCCUCUCUGCGGUUUUUCAGAUUAGGUAGUCGAAAAACCUAAGAAAUUUACCUGCUACAUUUCAAGAUAAA [CrPV IGR IRES PK3_K/O]” has a Kd [1] of 90 nM and a Kd [2] of 48 nM.

“AAAGCAAAAAUGUGAUCUUGCUUGUAAAUACAAUUUUGAGAGGUUAAUAAAUUACAAGUAGUGCUAUUUUUGUAUUUAGGUUAGCUAUUUAGCUUUACGUUCCAGGAUGCCUAGUGGCAGCCGGUGAAUAUCCAGGAAGCCCUCUCUGCGGUUUUUCAGAUUAGGUAGUCGAAAAACCUAAGAAAUUUAGGUGCUACAUUUCAAGAUAAA [CrPV IGR IRES PK1+3_K/O]” was tested, and the Kd [1] was 78 nM and the Kd [2] was 52 nM.

“AAAGCAAAAAUGUGAUCUUGCUUGUAAAUACAAUUUUGAGAGGUUAAUAAAUUACAAGUAGUGCUAUUUUUGUAUUUAGGUUAGCUAUUUAGCUUUACGUUCCAGGAUGCCUAGUGGCAGCCGGUGAAUAUCCAGGAAGCGGAGAGUGCGGUUUUUCAGAUUAGGUAGUCGAAAAACCUAAGAAAUUUAGGUGCUACAUUUCAAGAUAAA [CrPV IGR IRES PK1+2+3_K/O]” showed a Kd [1] of 79 nM and a Kd [2] of 48 nM.

In the case of “GAGCGGUUUCUGGAAUACUAUAUGUAAGUAUAGUGUUCUGGAGGCAUCAUUCUAUGGUUACCCAUCAUUAGAGGAAAUUUCCAAUAAACUCUGGUGUAAGGCUUAGAGUGAUGGUCGAGGUGCCCUAUUUAGGGUGAGGAGCCUCGGUGGCAGCCCCACCAAAUCCUCUAUUGGAUAGGAACAGCUGUACUGGGCAGUUACAGCAGUCGUAUGGUAACACAUGCGGCGUUCCGAAAUACCAUGCCUGGCGAUUCACAACAAGAA [IAPV IGR IRES WT]”, the Kd [1] is reported as 50 nM and the Kd [2] is reported as 93 nM.

Sequence “GAGCGGUUUCUGGAAUACUAUAUGUAAGUAUAGUGUUCUGGAGGCAUCAUUCUAUGGUUACCCAUCAUUAGAGGAAAUUUCCAAUAAACUCUGGUGUAAGGCUUAGAGUGAUGGUCGAGGUGCCCUAUUUAGGGUGAGGAGCCUCGGUGGCAGCCCCACCAAAUCCUCUAUUGGAUAGGAACAGCUGUACUGGGCAGUUACAGCAGUCGUAUGGUAACACAUGCGGCGUUCCGAAAUACCAUGGGUGGCGAUUCACAACAAGAA [IAPV IGR IRES PK1_K/O]” has a Kd [1] of 67 nM and a Kd [2] of 87 nM.

Work on “GAGCGGUUUCUGGAAUACUAUAUGUAAGUAUAGUGUUCUGGAGGCAUCAUUCUAUGGUUACCCAUCAUUAGAGGAAAUUUCCAAUAAACUCUGGUGUAAGGCUUAGAGUGAUGGUCGAGGUGCCCUAUUUAGGGUGAGGAGCCUCGGUGGCAGCCCCACCAAAUCCUCUUAACCAUAGGAACAGCUGUACUGGGCAGUUACAGCAGUCGUAUGGUAACACAUGCGGCGUUCCGAAAUACCAUGCCUGGCGAUUCACAACAAGAA [IAPV IGR IRES PK2_K/O]” yielded a Kd [1] of 59 nM and a Kd [2] of 81 nM.

“GAGCGGUUUCUGGAAUACUAUAUGUAAGUAUAGUGUUCUGGAGGCAUCAUUCUAUGGUUACCCAUCAUUAGAGGAAAUUUCCAAUAAACUCUGGUGUAAGGCUUAGAGUGAUGGUCGAGGUGCCCUAUUUAGGGUGAGGAGCCUCGGUGGCAGCCCCUGGAAAUCCUCUAUUGGAUAGGAACAGCUGUACUGGGCAGUUACAGCAGUCGUAUGGUAACACAUGCGGCGUUCCGAAAUACCAUGCCUGGCGAUUCACAACAAGAA [IAPV IGR IRES PK3_K/O]” showed a Kd [1] of 59 nM and a Kd [2] of 103 nM.

Sequence “GAGCGGUUUCUGGAAUACUAUAUGUAAGUAUAGUGUUCUGGAGGCAUCAUUCUAUGGUUACCCAUCAUUAGAGGAAAUUUCCAAUAAACUCUGGUGUAAGGCUUAGAGUGAUGGUCGAGGUGCCCUAUUUAGGGUGAGGAGCCUCGGUGGCAGCCCCUGGAAAUCCUCUAUUGGAUAGGAACAGCUGUACUGGGCAGUUACAGCAGUCGUAUGGUAACACAUGCGGCGUUCCGAAAUACCAUGGGUGGCGAUUCACAACAAGAA [IAPV IGR IRES PK1+3_K/O]” has a Kd [1] of 65 nM and a Kd [2] of 80 nM.

“GAGCGGUUUCUGGAAUACUAUAUGUAAGUAUAGUGUUCUGGAGGCAUCAUUCUAUGGUUACCCAUCAUUAGAGGAAAUUUCCAAUAAACUCUGGUGUAAGGCUUAGAGUGAUGGUCGAGGUGCCCUAUUUAGGGUGAGGAGCCUCGGUGGCAGCCCCUGGAAAUCCUCUUAACCAUAGGAACAGCUGUACUGGGCAGUUACAGCAGUCGUAUGGUAACACAUGCGGCGUUCCGAAAUACCAUGGGUGGCGAUUCACAACAAGAA [IAPV IGR IRES PK1+2+3_K/O]” was tested, and the Kd [1] was 72 nM and the Kd [2] was 73 nM.

For “GCGCGGAUGCUCAGUCGGUAGAGCAGGGGAUUGAAAAUCCCCGUGUCCUUGGUUCGAUUCCGAGUCCGCGCACCA [tRNAPhe]”, the Kd ([2]; only 10% bound) was 35 nM.

In the case of “GGAUACGCACAAUAAGGCUAUUGUACGUAUGCAAAUUAAUAAUAAAGGAGAGUAGCAAUGUCAUUCGAAUUACCUGCACUACCAUAUGCUAAAGAUGCUCUGGCACCGCACAUUUCUGCGG [sodB 5' UTR RNA]”, the Kd ([1]; 56% bound) is reported as 47 nM and the Kd ([2]; 41% bound) is reported as 13 nM.

Work on “GGUACGAGUAGAAUACUGCCGCUUAACGUCGCGUAAAUUGUUUAACACUUUGCGUAACGUACACUGGGAUCGCUGAAUUAGAGAUCGGCGUCCUUUCAUUCUAUAUACUUUGGAGUUUUAAAAUGUCUCAAGUACUGAAGCAACAGCUAAAAUCGUUUCUGAGUUUGGUCGUGACGCAAACGACACC [rpsO 5' UTR RNA]” yielded a Kd ([1]; 44% bound) of 94 nM and a Kd ([2]; 39% bound) of 10 nM.
